Source: patent US20230265151A1, “GIP/GLP1 CO-AGONIST COMPOUNDS” (priority 2020, published 2023)
Substitutions are numbered along the chain they refer to.

B1: Y-Aib-EGT-αMeF(2F)-TSD-4Pal-SI-αMeL-LD-Orn-IAQ-Aib-K((2-[2-(2-Amino-ethoxy)-ethoxy]-acetyl)2-(γ-Glu)-CO-(CH2)12-CO2H)FI-(D-Glu)-αMeY-LIK((2-[2-(2-Amino-ethoxy)- … (peptide)
peptide: YXEGTXTSDXSIXLDXIAQXKFIXXLIKGGPSSGAPPPS
modifications: Aib2, αMeF(2F)6, 4Pal10, αMeL13, Orn16, Aib20, K21(Z1), D-Glu24, αMeY25, K28(Z1), C-term NH2; Z1=AEEA2-(γ-Glu)-CO-(CH2)12-CO2H
B2: Y-Aib-EGT-αMeF(2F)-TSD-4Pal-SI-αMeL-LD-Orn-IAQ-Aib-EFIK((2-[2-(2-Amino-ethoxy)-ethoxy]-acetyl)2-(γ-Glu)-CO-(CH2)12-CO2H)-αMeY-LIK((2-[2-(2-Amino-ethoxy)-ethoxy] … (peptide)
peptide: B1 peptide with K21E, X24K
modifications: Aib2, αMeF(2F)6, 4Pal10, αMeL13, Orn16, Aib20, K24(Z1), αMeY25, K28(Z1), C-term NH2; Z1=AEEA2-(γ-Glu)-CO-(CH2)12-CO2H
B3: Y-Aib-EGT-αMeF(2F)-TSD-4Pal-SI-αMeL-LD-Orn-K((2-[2-(2-Amino-ethoxy)-ethoxy]-acetyl)2-CO-(CH2)12-CO2H)AQ-Aib-K((2-[2-(2-Amino-ethoxy)-ethoxy]-acetyl)2-CO-(CH2)12 … (peptide)
peptide: B1 peptide with I17K, K28E
modifications: Aib2, αMeF(2F)6, 4Pal10, αMeL13, Orn16, K17(Z1), Aib20, K21(Z1), D-Glu24, αMeY25, C-term NH2; Z1=AEEA2-CO-(CH2)12-CO2H
B4: Y-Aib-EGT-αMeF(2F)-TSD-4Pal-SI-αMeL-LD-Orn-K((2-[2-(2-Amino-ethoxy)-ethoxy]-acetyl)2-(γ-Glu)-CO-(CH2)14-CH3)AQ-Aib-K((2-[2-(2-Amino-ethoxy)-ethoxy]-acetyl)2-(γ- … (peptide)
peptide: B1 peptide with I17K, K28E
modifications: Aib2, αMeF(2F)6, 4Pal10, αMeL13, Orn16, K17(Z1), Aib20, K21(Z1), D-Glu24, αMeY25, C-term NH2; Z1=AEEA2-(γ-Glu)-CO-(CH2)14-CH3
B5: Y-Aib-EGT-αMeF(2F)-TSDK((2-[2-(2-Amino-ethoxy)-ethoxy]-acetyl)3-(γ-Glu)-CO-(CH2)10-CH3)-Aib-I-αMeL-LD-Orn-K((2-[2-(2-Amino-ethoxy)-ethoxy]-acetyl)3-(γ-Glu)-CO-( … (peptide)
peptide: YXEGTXTSDKXIXLDXKAQXEFIXXLIEGGPSSGAPPPS
modifications: Aib2, αMeF(2F)6, K10(Z1), Aib11, αMeL13, Orn16, K17(Z1), Aib20, D-Glu24, αMeY25, C-term NH2; Z1=AEEA3-(γ-Glu)-CO-(CH2)10-CH3
B6: Y-Aib-EGT-αMeF(2F)-TSD-4Pal-SI-αMeL-LD-Orn-K((2-[2-(2-Amino-ethoxy)-ethoxy]-acetyl)2-(γ-Glu)-CO-(CH2)14-CH3)AQ-Aib-EFI-(D-Glu)-αMeY-LIEGK((2-[2-(2-Amino-ethoxy) … (peptide)
peptide: B5 peptide with K10X, X11S, G30K
modifications: Aib2, αMeF(2F)6, 4Pal10, αMeL13, Orn16, K17(Z1), Aib20, D-Glu24, αMeY25, K30(Z1), C-term NH2; Z1=AEEA2-(γ-Glu)-CO-(CH2)14-CH3
B7: Y-Aib-EGT-αMeF(2F)-TSD-4Pal-SI-αMeL-LD-Orn-IAQ-Aib-EFI-(D-Glu)-αMeY-LIK((2-[2-(2-Amino-ethoxy)-ethoxy]-acetyl)2-(γ-Glu)-CO-(CH2)14-CH3)GGK((2-[2-(2-Amino-ethoxy … (peptide)
peptide: B1 peptide with K21E, P31K
modifications: Aib2, αMeF(2F)6, 4Pal10, αMeL13, Orn16, Aib20, D-Glu24, αMeY25, K28(Z1), K31(Z1), C-term NH2; Z1=AEEA2-(γ-Glu)-CO-(CH2)14-CH3
B8: Y-Aib-EGT-αMeF(2F)-TSD-4Pal-SI-αMeL-LD-Orn-K((2-[2-(2-Amino-ethoxy)-ethoxy]-acetyl)2-(γ-Glu)-CO-(CH2)14-CH3)AQ-Aib-EFI-(D-Glu)-αMeY-LIK((2-[2-(2-Amino-ethoxy)-e … (peptide)
peptide: B1 peptide with I17K, K21E
modifications: Aib2, αMeF(2F)6, 4Pal10, αMeL13, Orn16, K17(Z1), Aib20, D-Glu24, αMeY25, K28(Z1), C-term NH2; Z1=AEEA2-(γ-Glu)-CO-(CH2)14-CH3
B9: Y-Aib-EGT-αMeF(2F)-TSD-4Pal-SI-αMeL-LD-Orn-IAQ-Aib-K((2-[2-(2-Amino-ethoxy)-ethoxy]-acetyl)2-(γ-Glu)-CO-(CH2)12-CO2H)FI-(D-Glu)-αMeY-LIEGGPSSGAPPPSK((2-[2-(2-Am … (peptide)
peptide: YXEGTXTSDXSIXLDXIAQXKFIXXLIEGGPSSGAPPPSK
modifications: Aib2, αMeF(2F)6, 4Pal10, αMeL13, Orn16, Aib20, K21(Z1), D-Glu24, αMeY25, K40(Z1), C-term NH2; Z1=AEEA2-(γ-Glu)-CO-(CH2)12-CO2H

Molecular target: T1, human GIP receptor (human, UniProt P48546 22-466)
T1 construct: whole, on cells; also called hGIPR; human glucose-dependent insulinotropic polypeptide receptor
T1 sequence (looked up): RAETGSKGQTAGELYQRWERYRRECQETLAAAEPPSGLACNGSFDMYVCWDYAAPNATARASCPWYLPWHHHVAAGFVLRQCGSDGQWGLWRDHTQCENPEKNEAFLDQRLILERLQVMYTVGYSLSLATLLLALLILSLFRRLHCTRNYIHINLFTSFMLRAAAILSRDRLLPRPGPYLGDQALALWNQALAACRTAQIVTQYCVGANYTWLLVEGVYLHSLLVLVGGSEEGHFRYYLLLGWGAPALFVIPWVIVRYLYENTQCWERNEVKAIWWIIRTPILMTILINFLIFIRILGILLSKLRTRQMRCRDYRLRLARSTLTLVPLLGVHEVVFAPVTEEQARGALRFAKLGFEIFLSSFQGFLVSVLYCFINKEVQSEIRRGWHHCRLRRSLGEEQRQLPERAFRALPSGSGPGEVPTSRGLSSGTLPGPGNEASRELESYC
Experiment: SPA competition vs [125I]-GIP, hGIPR membranes

Binder	Ki [nM]
B1	0.0454
B2	0.12
B3	0.0627
B4	0.0231
B5	0.0245
B6	0.0361
B7	0.0863
B8	0.0238
B9	0.107

Molecular target: T2, human GLP-1 receptor (human, UniProt P43220 24-463)
T2 construct: whole, on cells; also called hGLP-1R; human glucagon-like peptide-1 receptor
Experiment: SPA competition vs [125I]-GLP-1, hGLP-1R membranes
Experimental: The binding buffer contains 25 mM HEPES, pH 7.4, 2.5 mM CaCl₂, 1 mM MgCl₂, 0.1% (w/v) bacitracin, 0.003% (w/v) TWEEN®-20, and Roche Complete™ Protease Inhibitors without EDTA.
Data are analyzed using four-parameter (curve maximum, curve minimum, IC₅₀, Hill slope) nonlinear regression routines (Genedata Screener, version 12.0.4, Genedata AG, Basal, Switzerland). […] Values for Kᵢ are reported as the geometric mean, with error expressed as the standard error of the mean (SEM) and n is equal to the number of independent replicates (determined in assays performed on different days). Geometric Means are calculated as follows: […]

Binder	Ki [nM]
B1	3.38
B2	1.67
B3	0.881
B4	0.246
B5	0.198
B6	0.52
B7	0.867
B8	0.251
B9	2.8

Molecular target: T3, human glucagon receptor (human, UniProt P47871 26-477)
T3 construct: whole, on cells; also called hGCGR; hGcgR
Experiment: SPA competition vs [125I]-Gcg, hGcgR membranes
Experimental: The binding buffer contains 25 mM 4-(2-hydroxyethyl)-1-piperazineethanesulfonic acid (HEPES), pH 7.4, 2.5 mM CaCl₂, 1 mM MgCh, 0.1% (w/v) bacitracin (Research Products), 0.003% (w/v) Polyoxyethylenesorbitan monolaurate (TWEEN®-20), and Roche Complete™ Protease Inhibitors without EDTA. […] Plates are sealed and mixed on a plate shaker (setting 6) for 1 minute and read with a PerkinElmer Trilux MicroBeta® scintillation counter after 12 hours of incubation/settling time at room temperature.
Data are analyzed using four-parameter (curve maximum, curve minimum, IC₅₀, Hill slope) nonlinear regression routines (Genedata Screener, version 12.0.4, Genedata AG, Basal, Switzerland). […] Values for Kᵢ are reported as the geometric mean, with error expressed as the standard error of the mean (SEM) and n is equal to the number of independent replicates (determined in assays performed on different days).

T3 sequence (P47871 26-477): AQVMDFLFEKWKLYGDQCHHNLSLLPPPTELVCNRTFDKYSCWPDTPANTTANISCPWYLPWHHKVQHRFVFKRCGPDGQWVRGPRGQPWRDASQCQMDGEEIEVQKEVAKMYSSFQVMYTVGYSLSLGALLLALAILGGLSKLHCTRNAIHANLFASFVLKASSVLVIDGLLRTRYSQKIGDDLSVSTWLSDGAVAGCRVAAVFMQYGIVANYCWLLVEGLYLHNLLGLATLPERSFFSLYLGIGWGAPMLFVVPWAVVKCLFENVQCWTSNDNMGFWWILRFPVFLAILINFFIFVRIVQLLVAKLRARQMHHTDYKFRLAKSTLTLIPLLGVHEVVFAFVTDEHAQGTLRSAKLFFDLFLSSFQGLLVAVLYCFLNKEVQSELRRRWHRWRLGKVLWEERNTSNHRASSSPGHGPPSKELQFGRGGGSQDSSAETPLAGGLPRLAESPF

Binder	Ki [nM]
B1	53.9
B2	151
B3	625
B4	0.293
B5	345
B6	0.646
B7	3.82
B8	1.18
B9	206
